For 18 sequences, protein production results are on record in a protein production outcome set (Wang et al. 2014).

This series in a line: label from the status in PepcDB records.
Turning to “MARYINITLEKRGVTCKALLLDDVAPRTSKAVWDALPQSSQVFHGKYARNEIYNLVPAFAPKEPGAENTTVTPIPGDVCYFTFTSNDLKTPSHGYEADSGTDEVQTIVDLAVFYGRNNLLLNGDTGWVPGNVFATIVEGLDEMAAACQDIWMGGARDETLTFSRAEDTA”, the protein production result is reported as “not failed”.

In the case of “MASAHTTQTPFNRLLLTGAAGGLGKVLRETLRPYSHILRLSDIAEMAPAVGDHEEVQVCDLADKDAVHRLVEGVDAILHFGGVSVERPFEEILGANICGVFHIYEAARRHGVKRVIFASSNHVIGFYKQNETIDAHSPRRPDSYYGLSKSYGEDMASFYFDRYGIETVSIRIGSSFPEPQNRRMMSTWLSFDDLTRLLERALYTPDVGHTVVYGVSDNKTVWWDNRFASKLDYAPKDSSEVFRAKVDAQPMPADDDPAMVYQGGAFVASGPFGDK”, the protein production result was “failed”. As for “MASAMLATLELDYFRAVSLYRRRSYERCAELCNALLQAGHDGHVQLFTTKEEEEEEQHQQQQAEHSRFGSNLQRIGPRPRGAAGGGAGAVDSGPSIMMPTWLMEGVWQLKMRALTQRVYVDDLDEDDGGNEATEEVEFERIATAARPGSSIKTAFQPRPLTSQRAQQARSRGAGVAHSSDGRLNSSRPGSAAVARPGTSLSRPGSSLGSRCGTASRIRATSAAAFNVGDATSKLYQASRLNPTIYAERETLVKALFQFLYYHEADVQKAHSLCQAVLEVERQKPSGSTGCTLSWWWQQQMGRCLLALHYPRRAEPFLQQSLTSFPHPDTYLLLSRVYQRIKQPERALLVIGEVVDSRPFDVTYRLEQARIHQAMEQQEDALQLYRLAAKLHPINVESLASIAVGYFYDNNPEMALMYYRRILSLGAQSPELYCNIALCCLYGGQIDLVLPCFQRALATATQPGQKSDIWYNLSFVAVTSGDFNLAKRCLQLCLTSDAQNGAALNNLAVLAAQSGDILGAKSYLNAAKDVMPDAAEVTTNLQFMDVHYKL”, the protein production result is reported as “failed”. For the sequence “MASEDKFESVLSTRYCKNSPLVSILSETNKATLWRQLWIWLAEAEKELGLKQVTQDAIDEMKSNRDVFDWPFIRSEERKLKHDVMAHNHAFGKLCPTAAGIIHLGATSCFVQDNADLIAYRDSIDHILKRFATVIDRLAAFSLKNKEVVTVGRTHYQTASLVTVGKRGVLWAQELLMAFQSLSEFRDKMRFRGIKGATGTQDSFLTLFAGDESKVEALDELVTKKANFSNRFLITGQTYSRQQDSQLVFSLSLLGAAAKKVCTDIRVLQAFGELLEPFEKDQIGSSAMPYKKNPMKSERCCALSRKLINAPQEALTILADQGLERTLDDSAGRRMLIPDVLLTAEALLTTLQNIFEGLSVQTDNVKKIVEDEIAFLGLEKAMMMLTEEGVDRQQAHAVIRKTALEAKQLQATQKVDIRQTMADPFFDSVRDRVVGLVNNPINFTGRCVSQTESFIAKELKPTIDKYLDKSAGNVQLDV”, the protein production result is listed as “not failed”. Turning to “MASEVVRDSLWRYFAEFVGTFILMLFGDGAVVASLVTNGTSPGYGFIMISWGFGVVLAIYAVGPISGAHINPNVTLAFAVTKRMKWRDVIPYILFQTLGAAAAAGILLAWWGSIITKMDPPPTLYAQVGASFFTEYPNPSFWGQYWPKELLLPNSASGTSLFSEVNQVFPLWIGAFAELLMTFLLLLIVLAVTDTDSPFFNQSLAPWAIGIGYVMPFLLFEAQLTGGMINEARSWGPMLALYLFGYRTGAFNFRGQYFFVYGIPDFIGGILGALFWDYVLKPYLKYLKSNNKK”, the protein production entry was “failed”. Take “MASFPPRVNEKEIVRSRTIGELLAPAAPFDKKCGGENWTVAFAPDGSYFAWSQGYRIVKLVPWSQCLKNFLLHGSKNVTNSSCLKLARQNSNGGQKNKPREHIIDCGDIVWSLAFGSSVPEKQSRCVNIEWHRFRFGQDQLLLATGLNNGRIKIWDVYTGKLLLNLVDHIEVVRDLTFAPDGSLLLVSASRDKTLRVWDLKDDGNMVKVLRGHQNWVYSCAFSPDCSMLCSVGASKAVFLWNMDKYTMIRRLEGHHHDVVACDFSPDGALLATASYDTRVYVWDPHIGDTLMEFGHLFPPPTPIFAGGANDRWVRAVSFSHDGLHVASLADDKMVRFWSIGDDCPVQVAPLSNGLCCAFSTDGSVLAAGTHDGSVYFWATPRQVSSLQHLCRMSIRRVMPTQEVQKLPVPSKMLEFLSYRV”: the protein production result is “failed”. In the case of “MASGQGPGPPRQECGEPALPSASEEQVAQDTEEVFRSYVFYRHQQEQEAEGVAAPADPEMVTLPLQPSSTMGQVGRQLAIIGDDINRRYDSEFQTMLQHLQPTAENAYEYFTKIATSLFESGINWGRVVALLGFGYRLALHVYQHGLTGFLGQVTRFVVDFMLHHCIARWIAQRGGWVAALNLGNGPILNVLVVLGVVLLGQFVVRRFFKS”, the protein production result is reported as “not failed”. For the sequence “MASLSQLSSHLNYTCGAENSTGASQARPHAYYALSYCALILAIVFGNGLLCMAVLKERALQTTTNYLVVSLAVADLLVATLVMPWVVYLEVTGGVWNFSICCDVFVTLDVMMCTASILNLCAISIDRYTAVVMPVHYQHGTGQSSCRRVALMITAVWVLAFAVSCPLLFGFNTTGNPTVCSISNPDFVIYSSVVSFYLPFGVTVLVYARIYVVLKQRRRKRILTRQNSQCNSVRPGFPQQTLSPDPAHLELKRYYSICQDTALGGPGFQERGGELKREEKTRNSLSPTIAPKLSLEVRKLSNGRLSTSLKLGPLQPRGVPLREKKATQMVAIVLGTFIVCWLPFFLTHVLNTHCQTCHVSPELYSATTWLGYVNSALNPVIYTTFNIEFRKAFLKILSC”, the protein production entry is recorded as “not failed”. For the sequence “MASNMDREMILADFQACTGIENIDEAITLLEQNNWDLVAAINGVIPQENGILQSEYGGETIPGPAFNPASHPASAPTSSSSSAFRPVMPSRQIVERQPRMLDFRVEYRDRNVDVVLEDTCTVGEIKQILENELQIPVSKMLLKGWKTGDVEDSTVLKSLHLPKNNSLYVLTPDLPPPSSSSHAGALQESLNQNFMLIITHREVQREYNLNFSGSSTIQEVKRNVYDLTSIPVRHQLWEGWPTSATDDSMCLAESGLSYPCHRLTVGRRSSPAQTREQSEEQITDVHMVSDSDGDDFEDATEFGVDDGEVFGMASSALRKSPMMPENAENEGDALLQFTAEFSSRYGDCHPVFFIGSLEAAFQEAFYVKARDRKLLAIYLHHDESVLTNVFCSQMLCAESIVSYLSQNFITWAWDLTKDSNRARFLTMCNRHFGSVVAQTIRTQKTDQFPLFLIIMGKRSSNEVLNVIQGNTTVDELMMRLMAAMEIFTAQQQEDIKDEDEREARENVKREQDEAYRLSLEADRAKREAHEREMAEQFRLEQIRKEQEEEREAIRLSLEQALPPEPKEENAEPVSKLRIRTPSGEFLERRFLASNKLQIVFDFVASKGFPWDEYKLLSTFPRRDVTQLDPNKSLLEVKLFPQETLFLEAKE”, the protein production entry is on record as “not failed”. The result for “MASNSSSCPTPGGGHLNGYPVPPYAFFFPPMLGGLSPPGALTTLQHQLPVSGYSTPSPATIETQSSSSEEIVPSPPSPPPLPRIYKPCFVCQDKSSGYHYGVSACEGCKGFFRRSIQKNMVYTCHRDKNCIINKVTRNRCQYCRLQKCFEVGMSKESVRNDRNKKKKEVPKPECSESYTLTPEVGELIEKVRKAHQETFPALCQLGKYTTNNSSEQRVSLDIDLWDKFSELSTKCIIKTVEFAKQLPGFTTLTIADQITLLKAACLDILILRICTRYTPEQDTMTFSDGLTLNRTQMHNAGFGPLTDLVFAFANQLLPLEMDDAETGLLSAICLICGDRQDLEQPDRVDMLQEPLLEALKVYVRKRRPSRPHMFPKMLMKITDLRSISAKGAERVITLKMEIPGSMPPLIQEMLENSEGLDTLSGQPGGGGRDGGGLAPPPGSCSPSLSPSSNRSSPATHSP” reads “not failed”; that for “MASQITGSFTSLTKLITAGSYLAGLGFSIGAIMKFKQHKDNPTQIPIGTPIALIFIAAALLFLPSILGVAGVTMFGGSGGKTAGPTGTIYKTN”, “failed”. Regarding “MASRFSRVVLVLIDALRFDFAQPQHSHVPREPPVSLPFLGKLSSLQRILEIQPHHARLYRSQVDPPTTTMQRLKALTTGSLPTFIDAGSNFASHAIVEDNLIKQLTSAGRRVVFMGDDTWKDLFPGAFSKAFFFPSFNVRDLDTVDNGILEHLYPTMDSGEWDVLIAHFLGVDHCGHKHGPHHPEMAKKLSQMDQVIQGLVERLENDTLLVVAGDHGMTTNGDHGGDSELEVSAALFLYSPTAVFPSTPPEEPEVIPQVSLVPTLALLLGLPIPFGNIGEVMAELFSGGEDSQPHSSALAQASALHLNAQQVSRFLHTYSAATQDLQAKELHQLQNLFSKASADYQWLLQSPRAEATLPTVIAELQQFLRGARAMCIESWARFSLVRMAGGTALLAASCFICLLASQWAISPGFPFCPLLLTPVAWGLVGAIAYAGLLGTIELKLDLVLLGAVAAVSSFLPFLWKAWAGWGSKRPLATLFPIPGPVLLLLLFRLAVFFSDSFVVAEARATPFLLGSFILLLVVQLHWEGQLLPPKLLTMPRLGTSATTNPPRHNGAYALRLGIGLLLCTRLAGLFHRCPEETPVCHSSPWLSPLASMVGGRAKNLWYGACVAALVALLAAVRLWLRRYGNLKSPEPPMLFVRWGLPLMALGTAAYWALASGADEAPPRLRVLVSGASMVLPRAVAGLAASGLALLLWKPVTVLVKAGAGAPRTRTVLTPFSGPPTSQADLDYVVPQIYRHMQEEFRGRLERTKSQGPLTVAAYQLGSVYSAAMVTALTLLAFPLLLLHAERISLVFLLLFLQSFLLLHLLAAGIPVTTPGPFTVPWQAVSAWALMATQTFYSTGHQPVFPAIHWHAAFVGFPEGHGSCTWLPALLVGANTFASHLLFAVGCPLLLLWPFLCESQGLRKRQQPPGNEADARVRPEEEEEPLMEMRLRDAPQHFYAALLQLGLKYLFILGIQILACALAASILRRHLMVWKVFAPKFIFEAVGFIVSSVGLLLGIALVMRVDGAVSSWFRQLFLAQQR”, the protein production entry is “failed”. With “MASRSDSAALSRDVPGAAFCGSRDMQKKHLFLALLVTALWGLNFPITKLGLASIDPLLLTALRFTLAALPWVFLVPRPPVAFAWLAAYGLIFGVAMWALINLGIDHGVAPGTAALLIQFSAFFSLGWGVLLFGERLRLQQVLATAIALWGLLRIIGDSPGHATSLGYALLLVSAFSWSVGNVIIKRCGVREVFAFVVWASLFAPLPLLALTWISHGAAPFLQLAGQVSAGAALSLMFQVYAATLFCYWGWNLLLREYPVSRVAPLSLLIPVFGMAGSVLILGQRLGAEEGISMGLILLALAVGQFDWRRLITLGRRSL” the entry was “failed”; with “MASSFLEEVDRLITLSGITFHASGTGTPELIKIYQDALGNEFPETYKLFLEKYGTLTFNGVSFYGISKRGLSAASIPDVKFATEQARTFGDINKEMIMIKNSGYGSIFSIDTSIIGSEGEPVIVETNLSFKDNTEKKVVANSFGEFLLEEIELSLTDLG”, “not failed”. On to “MASSSKNITYPPRLYPEGLLKSSLCVFIKFADAKYIWAAHTVHYFLTNQLSVNNFHEIMSVIDGWPIRFSLTEFVDITSLNCDLLDKSTTCEIGHYEFWNEMGVGTYDGPLFIELKHVMDISKEWSYEKRLMVGRLCLLSVGVHGIYHGCRIPLSSAKLVLDPKAFEKYLWGRVAFESLVISVKIVDYKKDICDSWMCPRLVDLDL”, for which the protein production entry was “failed”. With “MASSSSLSLSFPSSSLSRTWDYDVFPSFHGEDVRKAFLSQILKKEFGRKAINFFVDHEMERGEFIGPVLKQAIKGSKIALVLLSKNYASSWCCLDELVEIMKKESGQTVITIFYEVDPNEVKKQTGDFGKAFKETCQGKTEEKVQTWRKALEGVGLATIAGFHSSNWFVFFI” the entry was “not failed”; with “MASSSSTYRSSSSSDGGNNNPSDSVVTVDERKRKRMLSNRESARRSRMRKQKHVDDLTAQINQLSNDNRQILNSLTVTSQLYMKIQAENSVLTAQMEELSTRLQSLNEIVDLVQSNGAGFGVDQIDGCGFDDRTVGIDGYYDDMNMMSNVNHWGGSVYTNQPIMANDINMY”, “failed”. Take “MASSYTLMLFLCLSIFLIASTEMMAVEGRICERRSKTWTGFCGNTRGCDSQCKRWERASHGACHAQGFPVSGIPSALPTVTHAKQREKMSAMGAYGITYFVGSIIGLLFVQGFEPEKGTLFKEQKGGVSKIDPKP”: the protein production result was “failed”.
